Literature values as cited in PMC11105488.

Assays:
FGFR4 (Homo sapiens) = FGFR4 (Homo sapiens) (UniProt P22455)
FGFR1c (Homo sapiens) = FGFR1c (Homo sapiens) (UniProt P11362)
FGFR2c (Homo sapiens) = FGFR2c (Homo sapiens) (UniProt P21802)
Chain of UniProt P21802 (P21802 22-377): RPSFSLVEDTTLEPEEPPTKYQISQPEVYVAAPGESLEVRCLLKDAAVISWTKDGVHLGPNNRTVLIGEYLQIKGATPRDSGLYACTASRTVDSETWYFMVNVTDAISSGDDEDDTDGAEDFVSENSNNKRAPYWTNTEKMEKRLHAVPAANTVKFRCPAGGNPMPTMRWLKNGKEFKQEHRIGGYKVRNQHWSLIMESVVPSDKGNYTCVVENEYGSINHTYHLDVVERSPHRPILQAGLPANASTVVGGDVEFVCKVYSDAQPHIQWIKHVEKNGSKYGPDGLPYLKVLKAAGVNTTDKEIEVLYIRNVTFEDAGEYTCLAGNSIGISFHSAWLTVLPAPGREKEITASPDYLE

Chain of UniProt P11362 (P11362 22-376): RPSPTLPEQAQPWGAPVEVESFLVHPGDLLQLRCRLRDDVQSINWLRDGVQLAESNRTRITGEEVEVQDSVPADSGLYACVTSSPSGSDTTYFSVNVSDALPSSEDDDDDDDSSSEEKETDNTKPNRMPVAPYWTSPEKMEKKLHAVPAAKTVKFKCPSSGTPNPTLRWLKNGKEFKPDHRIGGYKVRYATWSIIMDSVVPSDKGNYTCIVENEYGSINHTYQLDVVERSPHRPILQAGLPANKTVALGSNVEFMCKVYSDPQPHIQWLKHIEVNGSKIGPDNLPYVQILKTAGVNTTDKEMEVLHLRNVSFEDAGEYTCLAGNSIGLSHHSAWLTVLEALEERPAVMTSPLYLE
Chain of UniProt P22455 (P22455 22-369): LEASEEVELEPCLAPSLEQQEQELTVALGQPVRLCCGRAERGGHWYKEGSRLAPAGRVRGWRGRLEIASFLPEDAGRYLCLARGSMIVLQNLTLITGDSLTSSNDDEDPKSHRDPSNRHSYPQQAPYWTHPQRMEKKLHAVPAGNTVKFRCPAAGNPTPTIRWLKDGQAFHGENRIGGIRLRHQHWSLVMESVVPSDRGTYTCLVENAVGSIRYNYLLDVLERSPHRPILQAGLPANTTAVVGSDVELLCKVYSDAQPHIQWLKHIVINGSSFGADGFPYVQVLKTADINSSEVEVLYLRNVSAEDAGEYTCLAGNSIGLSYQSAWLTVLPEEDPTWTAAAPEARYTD

FGF23 (from UniProt Q9GZV9)
Kd (FGFR4 (Homo sapiens)): 200 nM | Kd (FGFR1c (Homo sapiens)): 700 nM | Kd (FGFR2c (Homo sapiens)): 200 nM
